Where “and” joins values, the source holds several entries; their conditions need not be identical. Equal entries are not always repeated.

In test [1] the target is DM2h^Bla-1-Myc (Arabidopsis thaliana). Kind of test: native gel or EMSA. (Mobility shift assays separate free from complexed probe on a gel.)
In test [2] the target is ΔTPDM3^Col-0 (recombinant, 52-515) (Arabidopsis thaliana). Kind of test: cryo-EM structure.
Test [3] has as its target ΔTPDM3^Col-0 D332R (recombinant) (Arabidopsis thaliana). The test can be described thus: SEC. A general note: SEC sorts molecules by how far they enter the pores of the column.
Test [4] concerns the target ΔTPDM3^Col-0 DQ-RR (D332R Q345R double mutant, recombinant) (Arabidopsis thaliana). The test can be described thus: SEC.
Test [5] has as its target ΔTPDM3^Col-0 DQN-AAA (D332A Q345A N349A triple mutant, recombinant) (Arabidopsis thaliana). The test can be described thus: SEC.
Test [6] deals with ΔTPDM3^Col-0 Q345R (recombinant) (Arabidopsis thaliana). Kind of test: SEC.
Test [7] has as its target ΔTPDM3^Col-0 S214A (recombinant) (Arabidopsis thaliana). The test can be described thus: SEC.
Test [8] deals with ΔTPDM3^Hh-0 (recombinant, 52-515) (Arabidopsis thaliana). Kind of test: cryo-EM structure.
For test [9], the target named is ΔTPDM3^Hh-0 S214A (recombinant) (Arabidopsis thaliana). The test can be described thus: SEC.

Take DM2h^Bla-1-Myc (receptor): the stoichiometry N (as a rule, the number of molecules, sites or subunits per partner or assembly) in test [1] was 2 and 4.

Consider “ΔTPDM3^Col-0 (recombinant, 52-515) (enzyme)”, for which the stoichiometry N in test [2] was determined as 6.

In the case of “ΔTPDM3^Col-0 D332R (recombinant) (enzyme)”, the stoichiometry N in [3] is 6.

With “ΔTPDM3^Col-0 DQ-RR (D332R Q345R double mutant, recombinant) (enzyme)”, in test [4], the stoichiometry N stood at 6.

Consider “ΔTPDM3^Col-0 DQN-AAA (D332A Q345A N349A triple mutant, recombinant) (enzyme)”, for which the stoichiometry N in test [5] is 6.

With “ΔTPDM3^Col-0 Q345R (recombinant) (enzyme)”, the stoichiometry N in test [6] stood at 6.

As to “ΔTPDM3^Col-0 S214A (recombinant) (enzyme)”, the stoichiometry N in test [7] was determined as 6.

For the substance “ΔTPDM3^Hh-0 (recombinant, 52-515) (enzyme)”, in test [8], the stoichiometry N is 6.

As for “ΔTPDM3^Hh-0 S214A (recombinant) (enzyme)”, the stoichiometry N in test [9] worked out at 6.

The values above are taken from paper doi:10.1101/2024.10.28.620575.
